Key:
[1] = substrate: O=C(O)[C@]1(O)C[C@@H](O)[C@@H](O)[C@H](O)C1; experiment: UPLC-DAD endpoint assay, Michaelis-Menten; type: biochemical, Echinacea purpurea; details: 50 μM caffeoyl CoA, PBS pH 7.0, 30 °C
[2] = substrate: CC(C)(COP(=O)(O)OP(=O)(O)OC[C@H]1O[C@@H](n2cnc3c(N)ncnc32)[C@H](O)[C@@H]1OP(=O)(O)O)[C@@H](O)C(=O)NCCC(=O)NCCSC(=O)/C=C/c1ccc(O)c(O)c1; experiment: UPLC-DAD endpoint assay, Michaelis-Menten; type: biochemical, Echinacea purpurea; details: PBS pH 7.0, 30 °C
[3] = substrate: COc1cc(/C=C/C(=O)SCCNC(=O)CCNC(=O)[C@H](O)C(C)(C)COP(=O)(O)OP(=O)(O)OC[C@H]2O[C@@H](n3cnc4c(N)ncnc43)[C@H](O)[C@@H]2OP(=O)(O)O)ccc1O; experiment: UPLC-DAD endpoint assay, Michaelis-Menten; type: biochemical, Echinacea purpurea; details: PBS pH 7.0, 30 °C
[4] = substrate: CC(C)(COP(=O)(O)OP(=O)(O)OC[C@H]1O[C@@H](n2cnc3c(N)ncnc32)[C@H](O)[C@@H]1OP(=O)(O)O)[C@@H](O)C(=O)NCCC(=O)NCCSC(=O)/C=C/c1ccc(O)cc1; experiment: UPLC-DAD endpoint assay, Michaelis-Menten; type: biochemical, Echinacea purpurea; details: PBS pH 7.0, 30 °C
[5] = substrate: O=C(O)C(O)C(O)C(=O)O; experiment: purified protein, by the assay type; design: Michaelis-Menten kinetics of recombinant EpHTT, product quantified by UPLC-DAD; details: pH 7.0; 16.0 °C
[6] = substrate: O=C(O)C(O)C(O)C(=O)O; experiment: purified protein; details: 50 μM caffeoyl CoA, PBS pH 7.0, 30 °C, pH 7.0
[7] = substrate: O=C(/C=C/c1ccc(O)c(O)c1)O[C@@H]1C[C@](O)(C(=O)O)C[C@@H](O)[C@H]1O; experiment: purified protein; details: 200 μM caftaric acid as acyl acceptor, 10 mM Na2HPO4, pH 4.0, 30 °C, pH 4.0
[8] = substrate: O=C(/C=C/c1ccc(O)c(O)c1)O[C@@H]1O[C@H](CO)[C@@H](O)[C@H](O)[C@H]1O; experiment: purified protein; type: biochemical, Echinacea purpurea; details: 200 μM caftaric acid as acyl acceptor, 10 mM Na2HPO4, pH 4.0, 30 °C
[9] = substrate: O=C(/C=C/c1ccc(O)c(O)c1)O[C@@H](C(=O)O)[C@@H](O)C(=O)O; experiment: purified protein; type: biochemical, Echinacea purpurea; details: 200 μM chlorogenic acid as acyl donor, 10 mM Na2HPO4, pH 4.0, 30 °C

B1: EpHQT (Echinacea purpurea) (protein)
chain: MNITITKSSLIPPSETLPGSETRLWTSNLDLVVGRIHILTVYFYRPNGSSNFFDPNAMKQALADVLVSFYPMAGRLGRDESGRVVINCNGEGALFVEAEADSCLDDFGEFTPSPELRSLTPAVDYSGDVSSYPLFFAQVTHFKCGGVSLGCGVFHTLSDGLSSLHFINTWSDVARGLSVAIPPFIDRTLLRAREPPTPTHDHVEYHPPPTMTMLNTIQKPGPLSKSSTTMLKLTLDQLNTLKAKTKTEGGPSYSTYEILAAHIWRCACKARGLPDDQLTKLYVATDGRSRLSPHLPRGYLGNVVFTATPVATSGALTSDSLQNAAKLIHTTLTQMDNEYLRSAIDYLEIQPDLSALIRGPSYFASPNLNINAWSRLPVHDADFGWGRPVFMGPAIILYEGTVYVLPSPNNDRSVSLAVCLDAKEQPLFEKYLYEF
notes: full-length CDS, N-terminal 6xHis (pDEST17), E. coli BL21(DE3), Ni-NTA purified
B1 showed a Km [1] of 576.167 ± 72.176 µM, a kcat [1] of 0.157 ± 0.007 s⁻¹ and a Km ([2]; 1 mM quinic acid) of 7.231 ± 1.577 µM. It also gave a kcat ([2]; 1 mM quinic acid) of 0.111 ± 0.005 s⁻¹, a Km ([3]; 1 mM quinic acid) of 38.623 ± 14.588 µM and a kcat ([3]; 1 mM quinic acid) of 0.0007 ± 0.00009 s⁻¹. It also gave a Km ([4]; 1 mM quinic acid) of 70.547 ± 43.952 µM and a kcat ([4]; 1 mM quinic acid) of 0.060 ± 0.036 s⁻¹.

B2: EpHTT (Echinacea purpurea) (protein)
chain: MKVVVRESTVVRPAEESPPRKLWNSSLDLTNLNGHTLVVYFYRPNGASDFFNTKLMKDTLSRMLVAFYPFAGRFKYDQHGRVETDCQGQGALFLEAESDGLIDDFGDFLPTLEYLKLIPAIDYSKGIDSFPLMVFQVTFFKCGGVSLGVGMHHHLVDGMSGLHFTNTWADMTRGLDITLPPFIDRTLLRPRDPPRPVFEHIEYQSDPTPLKVSLDETKTSFSMFKLTRNQLALLKEKAKEEGNKISYTTFEMFSAHVWKCVCKARGLPDDVETKLYLPVDGRARLQPPLPPGYFGNVIFDAAVIATAGDIKSKPIWYAAGKIHDSLARMNNDYLRSAIDYLEQHNCKKPYVDYNTNLRINSWARLPIHDADFGWGRPIFMGRTGLPSVGRVYVLPSAMDDGSLSIILGLEAEEMKVFGNLLYAI
notes: as for B1
B2 showed a Km [5] of 458.600 ± 80.431 µM, a kcat [5] of 0.176 ± 0.052 s⁻¹ and a kcat/Km [5] of 390 ± 122 M⁻¹ s⁻¹. It also gave a Km [6] of 841.967 ± 35.474 µM, a kcat [6] of 0.685 ± 0.016 s⁻¹ and a Km ([2]; 0.5 mM tartaric acid) of 34.760 ± 6.832 µM. It also gave a kcat ([2]; 0.5 mM tartaric acid) of 0.588 ± 0.064 s⁻¹, a Km ([3]; 0.5 mM tartaric acid) of 48.010 ± 11.329 µM and a kcat ([3]; 0.5 mM tartaric acid) of 0.122 ± 0.011 s⁻¹. For the same protein, the Km ([4]; 0.5 mM tartaric acid) was 22.027 ± 3.818 µM and the kcat ([4]; 0.5 mM tartaric acid) was 0.007 ± 0.001 s⁻¹.

B3: EpCAS (Echinacea purpurea) (protein)
chain: ASTIVKNLPGFHGDLPCTIETGYIGVGADDEVQFFYYFVESERDPSRDPLIYYLTGGPGTTALYPFLFQIGPLSINYDNSTWEKLTLELNPYSWSKAANVLFVDLPAGTGFSYGTTYEATKSSDSISAQQGYEFLIKWLEENPRFLNNSLYIAGTSYMGIVVPVVTLEVYKGNERGDQPQLNVKGYAISSPLTDKFSDFNSRFEFAHRAALISDDIYKSAKNNCGGNYIYNAVENTECARSLQRFEECTSRINEANILDPLCDEDSQDPVCGEVGDKYLKYYGNDKEVQKALGVREGTIEEFVKTNQSIHYLINKEDQDCYSYDIFSTIIYHKSLVSRNCQALILSADHDFTFPYVGVEQWITSLNLPLESPWNPWFVNNQVAGYRLKYARNGYSLTYATVKGAGHSIALYKPRETWVILDEWLASNSYLSDS
notes: full-length cDNA, C-terminal 6xHis (pESC-His), S. cerevisiae BY4741, Ni-NTA purified; vacuolar targeting peptide Met1-His24
Protein B3 has a Km [7] of 83.910 ± 7.811 µM, a kcat [7] of 0.005 ± 0.0003 s⁻¹ and a Km [8] of 121.400 ± 12.163 µM. The kcat [8] was 1.09e-05 ± 8.7e-07 s⁻¹, the Km [9] was 53.910 ± 0.613 µM and the kcat [9] was 0.005 ± 0.00002 s⁻¹.

Source: PMC7946891, “Versatility in acyltransferase activity completes chicoric acid biosynthesis in purple coneflower” (Nature Communications, 2021)
